T1: GCM N243 (MBP fusion) (Drosophila, UniProt Q27403 SEQ:1-243)
T1 chain: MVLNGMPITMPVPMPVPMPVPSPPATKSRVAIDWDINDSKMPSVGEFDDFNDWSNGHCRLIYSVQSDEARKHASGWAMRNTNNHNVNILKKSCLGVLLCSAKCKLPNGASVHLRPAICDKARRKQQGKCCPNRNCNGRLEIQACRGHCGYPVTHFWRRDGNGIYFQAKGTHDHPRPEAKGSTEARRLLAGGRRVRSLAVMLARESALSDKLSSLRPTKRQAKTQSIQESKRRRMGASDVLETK

T2: hGCMa N-terminal fragment (Homo sapiens, UniProt Q9NP62 SEQ:1-171)
T2 chain: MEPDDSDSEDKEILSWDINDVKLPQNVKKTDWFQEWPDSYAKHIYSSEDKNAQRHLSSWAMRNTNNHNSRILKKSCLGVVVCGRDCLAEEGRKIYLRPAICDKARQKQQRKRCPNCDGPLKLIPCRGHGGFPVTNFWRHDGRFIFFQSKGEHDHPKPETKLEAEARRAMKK


How the values were obtained:
[1] = biological target: T1, GCM N243 (MBP fusion); test: competition; no competition; settings: tags: MBP fusion (pMAL, E. coli)
[2] = biological target: T2, hGCMa N-terminal fragment; test: competition; results stated similar to those of GCM
Experimental: Gel shift assays and competition assays were carried out in the same manner as above by using proteins obtained by causing expression of DNA fragments of up to the 171-st amino acid residue of hGCMa, giving results similar to those of GCM.

[3] = biological target: T1, GCM N243 (MBP fusion); test: competition; dose-dependent competition of labeled 200 bp repo fragment, 1-1000x; settings: tags: MBP fusion (pMAL, E. coli)

Row | Binder | binding result [1] | binding result [2] | binding result [3]
1 | competitor b without GCM site (dsDNA) DNA 1: TGTGTGGAATTGTGAGCGGATATACTAATTTGTTAGGTTTTCCCAGTCACGACG DNA 2: CGTCGTGACTGGGAAAACCTAACAAATTAGTATATCCGCTCACAATTCCACACA | no binding | no binding | 
2 | competitor a with GCM site (dsDNA) DNA 1: TGTGTGGAATTGTGAGCGGACCTACCCGCATTACGGGTTTTCCCAGTCACGACG DNA 2: CGTCGTGACTGGGAAAACCCGTAATGCGGGTAGGTCCGCTCACAATTCCACACA |  | binds | binds
